Measured values reported in article PMC11343839, “Structural mechanism of proton conduction in otopetrin proton channel” (Nature Communications, 2024).
Positions count from the first letter of the chain named. Numbers in names are those of the source.

B1: Caenorhabditis elegans Otopetrin-like 8 (CeOTOP8), wild type, full length (natural protein, UniProt G5EDX5 1-619, looked up)
chain: MLMVDEQLKIGATPMYSPSHNPIVIADDMEKGGSDSDSLPSSPTHHHELYRRPWIHEPRATNFFVRLITSLYALILTIISLVVEVSPTWRTDMWLAETIFYISMYGVGILFFAYCYIFIIYPGPYNQLISVLRKYKIIKNSEVWFIMQSQHNGEGAGTLYLRLGALFFGSVGIVLFGLELFLCIENVACKKVAIAKMIVAIVFTFIQMHFIFCNSKITVNSSRKIVAFGMMHLISVNLWTWFRFVLAKQEAKAHKKAQLKQTFRKYYSSSSSSSSEEIHELISAVLNSTLNNTPATKTMEPVASRLFALEHFGDVATFLTTCIVEYSLIGAAIMFILWKSIGQNNHQQSNSGKRKVKMRIDCSSSSTGLFAGIIFLIGSLVSMGMYTIFESLRNSSGAQLVFGIVDLSLFSIALGACIIGLWRMRHLQYRLHAHGEVIDEILLIIGLIGEILYCAVGIDVFITCRRSADLTVSALPAFVFVIRMIQVVVQAAFILTTSRLRCLSKYSMKYKPGKEIITFLLVSNVTLFVFHTFEGMKSSFGFSSKAATQYNYIIYAVGPLLVFYRFHSSACLAEIWKHTYSTKSNEYDHEHMSLSDSNLTAITPISDIKEIPSPQLLKH
notes: Otopetrin-like 8 (CeOTOP8), Caenorhabditis elegans; wild-type full-length channel; the AlphaFold model AF-G5EDX5-F1 was the initial model; A thrombin cleavage site stood between the protein and the C-terminal 10x His tag; residues of the site may remain after digestion; also called WT CeOTOP8; source: HEK293F cells (BacMam system), purified (Ni-NTA, thrombin digestion on column, Superose 6 SEC in …)
B2: Mus musculus Otopetrin 2 (mOTOP2), wild type (natural protein)
chain: MSEELVPHPNESLPGPRASPREVWKKGGRLLSVLLAVNVLLLACTLISGGAFNKVAVYDTDVFALLTTMMLLAALWIVFYLLRTARCPDAVPYRDAHAGPIWLRGGLVLFGICTLVMDVFKTGYYSSFFECQSAIKILHPIIQAVFVIVQTYFLWISAKDCIHTHLDLTRCGLMFTLATNLAIWMAAVVDESVHQAHSYSGSHGNTSHTRLNPDSKRAGGAAEEDPCLCSTAICQIFQQGYFYLYPFNIEYSLFASTMLYVMWKNVGRLLASTHGHGHTPSRVSLFRETFFAGPVLGLLLFVVGLAVFILYEVQVSGERGHTRQALVIYYSFNIVCLGLMTLVSLSGSVIYRFDRRAMDHHKNPTRTLDVALLMGAALGQYAISYYSIVAVVVGSPRDLQGALNLSHALLMIAQHTFQNVFIIESLHRGPPGAEPREMPPKEPCQGITFANLDAIRTLPSCPPTPRLVIPNLESPQEAVAIISAPRCHWRRRCLKDISLFLLLCNVILWIMPAFGARPHFSNTVEVDFYGYSLWAAIVNICLPFGIFYRMHAVSSLLEVYVLS
notes: Otopetrin 2 (mOTOP2), Mus musculus; wild type; the AlphaFold model AF-Q80SX5-F1 was the initial model; N-terminal 10x His tag, then GFP, then a thrombin cleavage site; residues of the site may remain after digestion; also called mouse OTOP2; WT mOTOP2; source: HEK293F cells (BacMam system), purified (Ni-NTA, thrombin digestion on column, Superose 6 SEC in GDN); not shown: His10, N-terminal, …
B3: mOTOP2 L30W (natural protein, Mus musculus)
chain: B2 chain with L30W
notes: Otopetrin 2 (mOTOP2), Mus musculus, with the point mutation L30W on TM1; same construct as the wild-type channel; The general purification protocol removes His10-GFP with thrombin; also called mOTOP2 L30W loss-of-function mutant; source: HEK293F cells (pEZTBM vector, same construct as the wild type), purified
B4: mOTOP2 M374W (natural protein, Mus musculus)
chain: B2 chain with M374W
notes: Otopetrin 2 (mOTOP2), Mus musculus, with the point mutation M374W on TM9; same construct as the wild-type channel; The general purification protocol removes His10-GFP with thrombin; also called mOTOP2 M374W loss-of-function mutant; source: HEK293F cells (pEZTBM vector, same construct as the wild type), purified
B5: mOTOP2 V370W (natural protein, Mus musculus)
chain: B2 chain with V370W
notes: Otopetrin 2 (mOTOP2), Mus musculus, with the point mutation V370W on TM9; same construct as the wild-type channel; The general purification protocol removes His10-GFP with thrombin; also called mOTOP2 V370W loss-of-function mutant; source: HEK293F cells (pEZTBM vector, same construct as the wild type), purified

Tests used:
[1] = target: the molecule itself; test: cryo-EM structure; single-particle cryo-EM of protein purified in GDN detergent (20 mM Tris, 150 mM NaCl, 0.04% GDN), 3.0 mg/mL; samples at pH 5.0 and 8.0 (CeOTOP8), pH 5.0, 7.0, 8.0 and 9.0 (mOTOP2), pH 8.0 (mOTOP2 M374W)
[2] = target: the molecule itself; test: SEC; loss-of-function mutants of mOTOP2 purified as a stable dimer (Supplementary Fig. 10b, not shown); the general purification ends with Superose 6 10/300 GL in 20 mM Tris pH 8.0, 150 mM NaCl, 0.04% GDN

Protein | stoichiometry N [1] | stoichiometry N [2]
B1 | 2 | –
B2 | 2 | –
B3 | – | 2
B4 | – | 2
B5 | – | 2
